To fix the notation:
B1: Thermus thermophilus RNA polymerase ω subunit (natural protein)
chain: MAEPGIDKLFGMVDSKYRLTVVVAKRAQQLLRHGFKNTVLEPEERPKMQTLEGLFDDPNAVTWAMKELLTGRLVFGENLVPEDRLQKEMERLYPVEREE
B2: Thermus thermophilus transcription termination factor Rho (natural protein, UniProt Q5SJE9 1-426, looked up)
chain: MRRKETLQETPLTYQELASKILPELHLLAQEAGIEGYKRMKKDQLIMALLERQTQGEGLRLVKGYLEISQDGYGFLTENLHNLESRVAIVSAGLIKQYALRAGDYVVGQARPPRENERYATLLKVEAVNNLDPEAAKNRPRFDELTPQFPDRQIRLETTPDELSTRVIDLLAPIGRGQRGLIVAPPKAGKTTLLKKIANAVLKNEPDIKVIVLLIDERPEEVTDFRESVQGAEVIASTFDEPPQNHIRVAEFVHERAKRIVEEGGHVMILLDSITRLARANNLVTPPTGRTLSGGLDSAALYFPKRFLGAARNIRGGGSLTILATALVETGSRMDDVIFEEFKGTGNMELHLSRRLEERRIFPAIDILKSGTRREELLLGEEVTHKMWLLRKVLADMDPAEAMEMLLARLARTKNNKEFLASLAAR

Common to all, as to experiment: cryo-EM structure
The target in data set [1] is B2.
Data set [2] deals with the molecule itself.
Data set [3] deals with Thermus thermophilus RNA polymerase β subunit (Thermus thermophilus, UniProt Q8RQE9 1-1119).
Thermus thermophilus RNA polymerase β subunit, sequence (Q8RQE9 whole entry): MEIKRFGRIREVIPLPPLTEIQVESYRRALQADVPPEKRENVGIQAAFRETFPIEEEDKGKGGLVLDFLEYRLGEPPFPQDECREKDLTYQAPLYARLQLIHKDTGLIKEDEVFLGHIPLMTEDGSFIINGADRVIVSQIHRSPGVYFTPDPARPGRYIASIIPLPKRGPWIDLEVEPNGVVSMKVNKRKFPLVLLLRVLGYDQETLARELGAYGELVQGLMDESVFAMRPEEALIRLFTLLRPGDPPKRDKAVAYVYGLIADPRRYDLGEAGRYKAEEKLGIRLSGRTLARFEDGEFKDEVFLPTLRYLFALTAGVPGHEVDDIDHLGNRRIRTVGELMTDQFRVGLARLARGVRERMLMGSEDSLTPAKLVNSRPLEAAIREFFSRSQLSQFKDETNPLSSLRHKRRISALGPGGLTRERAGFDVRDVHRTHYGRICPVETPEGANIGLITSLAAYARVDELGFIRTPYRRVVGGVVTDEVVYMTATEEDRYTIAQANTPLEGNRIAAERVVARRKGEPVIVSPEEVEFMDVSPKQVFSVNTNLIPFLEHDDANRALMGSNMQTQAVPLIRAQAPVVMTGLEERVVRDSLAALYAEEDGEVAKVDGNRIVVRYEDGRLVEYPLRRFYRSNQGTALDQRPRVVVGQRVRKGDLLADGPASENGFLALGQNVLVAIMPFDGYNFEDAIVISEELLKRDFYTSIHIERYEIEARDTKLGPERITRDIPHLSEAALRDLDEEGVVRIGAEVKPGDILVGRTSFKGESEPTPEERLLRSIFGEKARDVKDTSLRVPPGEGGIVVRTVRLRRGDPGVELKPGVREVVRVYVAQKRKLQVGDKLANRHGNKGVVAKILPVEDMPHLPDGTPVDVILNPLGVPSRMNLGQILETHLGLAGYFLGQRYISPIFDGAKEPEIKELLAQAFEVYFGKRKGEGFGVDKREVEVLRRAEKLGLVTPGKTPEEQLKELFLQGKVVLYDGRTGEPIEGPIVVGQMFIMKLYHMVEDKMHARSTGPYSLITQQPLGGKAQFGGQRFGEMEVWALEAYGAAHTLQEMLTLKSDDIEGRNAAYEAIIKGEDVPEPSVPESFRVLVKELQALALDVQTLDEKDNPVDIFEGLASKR
The target in data set [4] is Thermus thermophilus RNA polymerase β' subunit (Thermus thermophilus, UniProt Q8RQE8 1-1524).
Thermus thermophilus RNA polymerase β' subunit, sequence (Q8RQE8 whole entry): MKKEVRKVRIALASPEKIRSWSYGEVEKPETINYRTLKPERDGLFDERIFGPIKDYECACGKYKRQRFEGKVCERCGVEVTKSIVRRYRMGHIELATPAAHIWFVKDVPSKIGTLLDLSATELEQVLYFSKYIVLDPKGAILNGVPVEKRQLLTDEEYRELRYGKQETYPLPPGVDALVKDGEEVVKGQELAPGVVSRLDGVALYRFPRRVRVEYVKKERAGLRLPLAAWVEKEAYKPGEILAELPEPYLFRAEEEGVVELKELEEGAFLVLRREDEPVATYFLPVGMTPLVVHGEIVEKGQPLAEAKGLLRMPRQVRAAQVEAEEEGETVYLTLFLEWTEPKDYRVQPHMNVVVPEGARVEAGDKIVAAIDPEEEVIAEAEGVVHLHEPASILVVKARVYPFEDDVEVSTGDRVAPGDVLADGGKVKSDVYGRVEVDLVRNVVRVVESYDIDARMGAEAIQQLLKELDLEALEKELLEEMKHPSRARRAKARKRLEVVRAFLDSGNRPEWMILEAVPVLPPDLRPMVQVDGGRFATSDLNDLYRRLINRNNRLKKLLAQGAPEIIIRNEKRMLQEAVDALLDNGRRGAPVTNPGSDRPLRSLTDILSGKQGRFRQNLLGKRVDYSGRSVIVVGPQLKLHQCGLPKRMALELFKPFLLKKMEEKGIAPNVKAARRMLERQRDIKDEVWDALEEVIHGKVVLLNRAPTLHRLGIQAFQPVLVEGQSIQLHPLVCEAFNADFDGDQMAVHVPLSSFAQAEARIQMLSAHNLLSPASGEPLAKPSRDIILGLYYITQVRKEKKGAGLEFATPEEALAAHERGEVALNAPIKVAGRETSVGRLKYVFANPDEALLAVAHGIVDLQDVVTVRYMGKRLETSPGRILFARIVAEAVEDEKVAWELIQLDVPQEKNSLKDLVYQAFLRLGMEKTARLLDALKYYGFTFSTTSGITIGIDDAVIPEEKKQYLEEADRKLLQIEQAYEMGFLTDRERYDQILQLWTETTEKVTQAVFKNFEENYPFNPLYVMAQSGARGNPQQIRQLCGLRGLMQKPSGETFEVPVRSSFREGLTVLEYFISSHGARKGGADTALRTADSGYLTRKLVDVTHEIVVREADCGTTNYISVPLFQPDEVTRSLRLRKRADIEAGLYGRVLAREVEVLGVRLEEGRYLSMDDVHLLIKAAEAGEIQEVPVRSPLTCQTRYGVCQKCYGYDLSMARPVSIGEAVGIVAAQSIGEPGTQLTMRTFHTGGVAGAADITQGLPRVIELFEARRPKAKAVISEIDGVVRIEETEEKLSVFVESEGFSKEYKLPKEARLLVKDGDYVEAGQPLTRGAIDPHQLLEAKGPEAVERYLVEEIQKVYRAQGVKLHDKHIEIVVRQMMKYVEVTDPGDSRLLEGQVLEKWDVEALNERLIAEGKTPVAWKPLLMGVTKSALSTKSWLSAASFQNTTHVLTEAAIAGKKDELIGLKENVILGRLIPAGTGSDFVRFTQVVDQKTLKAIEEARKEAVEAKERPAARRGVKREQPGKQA

As usually defined, the stoichiometry N is a count of units in the complex or per binding partner.

As to B1, the binding result in data set [1] is reported as “binds”.
For the molecule B2, in data set [2], the “stoichiometry N” value came out at 6. The binding result in data set [3] and in data set [4] was “binds” throughout.
